Results from patent publication US20260116920A1 (PEPTIDREAM, published 2026).
Starred links: 1 amine or outer side, 2 acyl side, 3 side chain; linkers in the order of their positions; H or OH if unused. Positions of bridges follow the written chain, without caps; N, C: chain ends. Non-standard residues stand in square brackets, D forms with d. Primed or numbered codes have the meaning given here. No end group written: not given here. F3COO(PEG4Me)″ = 3-carboxy-Phe with the carboxyl amidated by a methyl-capped PEG4 amine, COCCOCCOCCOCCNC(=O)c1cccc(C[C@H](N[*:1])C(=O)[*:2])c1; E(PEG4Me) = (S)-18-amino-15-oxo-2,5,8,11-tetraoxa-14-azanonadecane-19-oic acid, COCCOCCOCCOCCNC(=O)CC[C@H](N[*:1])C(=O)[*:2]; KCOpipzaa = N6-(4-(carboxymethyl)piperazine-1-carbonyl)-L-lysine, O=C(NCCCC[C@H](N[*:1])C(=O)[*:2])N1CCN(CC(=O)[*:3])CC1; Phe(4-OMe)(3) = (S)-2-amino-3-(4-methoxyphenyl)propanoic acid (source code F4OMe), COc1ccc(C[C@H](N[*:1])C(=O)[*:2])cc1; F4aao = (S)-2-amino-3-(4-(carboxymethoxy)phenyl)propanoic acid, O=C([C@H](Cc1ccc(OCC(=O)[*:3])cc1)N[*:1])[*:2]; Trp(1-CH2CO) = O=C([C@H](Cc1cn(CC(=O)[*:3])c2ccccc12)N[*:1])[*:2]; Nle(6-morpholino) = N[C@@H](CCCCN1CCOCC1)C(=O)O; NMePhe(3-Cl) = CN[C@@H](Cc1cccc(Cl)c1)C(=O)O; 3Pal(6-NH2) = Nc1ccc(C[C@H](N)C(=O)O)cn1; NMeY = CN[C@@H](Cc1ccc(O)cc1)C(=O)O; Lys(Me2) = CN(C)CCCC[C@H](N)C(=O)O; 4Pal = N[C@@H](Cc1ccncc1)C(=O)O

biological target: T1, human transferrin receptor (hTfR) (human, UniProt P02786 89-760); experiment: SPR; B = KD 1-100 nM
T1 construct: used as 0.5 uM hTfR dimer solution, immobilised on an NTA sensor chip (Ni capture plus EDC/NHS coupling); also called human TfR; TfR1
Protocol: NTA sensor chip (Global Life Sciences Technologies Japan K.K.) was inserted into BiacoreT200 (Global Life Sciences Technologies Japan K.K.), then the priming operation was performed three times by using running buffer containing: 10 mM HEPES pH 8.0 (Nacalai Tesque, Inc.), 150 mM NaCl (Nacalai Tesque, Inc.), 0.05% Tween 20 (Nacalai Tesque, Inc.), 0.1% BSA (SIGMA-ALDRICH) and 1.0% DMSO (FUJIFILM Wako Pure Chemical Corporation), and equilibrated at a flow rate of 30 μL/min. 350 mM EDTA solution was reacted at a flow rate of 10 μL/min for 60 seconds, 0.5 mM […] solution (Kishida Chemical Co., Ltd.) was reacted at a flow rate of 10 μL/min for 60 seconds, and then the NTA sensor chip was washed with 3 mM EDTA solution (Nacalai Tesque, Inc.) at a flow rate of 10 μL/min for 60 seconds. After mixing 50 μL each of 60 mM EDC solution (Global Life Science Technologies Japan K.K.) and 650 mM NHS solution (Global Life Science Technologies Japan K.K.), the reaction was carried out at a flow rate of 10 μL/min for 420 seconds. 150 μL of 0.5 μM hTfR dimer solution was prepared by dilution with running buffer and reacted at a flow rate of 10 μL/min for 300 seconds to immobilize hTfR on the NTA sensor chip. For the human transferrin receptor (hTfR), recombinant hTfR described in Example 2 of WO2018/124121 was used. After immobilization, capping was performed by reacting with 1.0 M ethanolamine solution (Global Life Sciences Technologies Japan K.K.) at a flow rate of 10 μL/min for 420 seconds. Peptide lysate prepared in DMSO solution to 10 mM was diluted with running buffer to be a final concentration of 10 μM peptide lysate, then peptide solutions of 100 nM, 50 nM, 25 nM, 10 nM, and 5 nM were prepared. Using the above samples, the kinetics of the peptide against hTfR was obtained by SPR measurement.
The kinetic evaluation model was single-cycle kinetics, and curve fitting was performed using Biacore T200 Evaluation Software Version 3.0 (Global Life Science Technologies Japan K.K.). The binding of the peptide to hTfR was evaluated by performing curve fitting on the obtained sensorgram by least squares method and obtaining the KD value.

T1 sequence (P02786 89-760 limits assumed): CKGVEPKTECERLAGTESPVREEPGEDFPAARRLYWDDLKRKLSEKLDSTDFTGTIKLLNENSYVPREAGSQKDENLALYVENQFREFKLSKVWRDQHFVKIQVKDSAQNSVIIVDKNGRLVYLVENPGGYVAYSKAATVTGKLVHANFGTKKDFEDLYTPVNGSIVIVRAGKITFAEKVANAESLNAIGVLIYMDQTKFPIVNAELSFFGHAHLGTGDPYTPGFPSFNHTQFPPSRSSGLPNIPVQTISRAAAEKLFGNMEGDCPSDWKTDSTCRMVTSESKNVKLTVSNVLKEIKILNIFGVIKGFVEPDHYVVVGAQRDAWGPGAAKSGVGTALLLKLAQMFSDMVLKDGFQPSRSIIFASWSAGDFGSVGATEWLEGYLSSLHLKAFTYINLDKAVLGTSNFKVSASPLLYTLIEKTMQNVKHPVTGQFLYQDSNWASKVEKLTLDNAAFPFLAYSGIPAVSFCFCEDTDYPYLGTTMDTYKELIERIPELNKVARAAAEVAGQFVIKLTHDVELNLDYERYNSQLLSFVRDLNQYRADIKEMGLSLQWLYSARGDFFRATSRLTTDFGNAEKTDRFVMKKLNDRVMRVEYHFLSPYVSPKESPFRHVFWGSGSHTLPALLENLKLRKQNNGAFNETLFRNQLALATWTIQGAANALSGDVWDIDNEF

KD | Binder
1 to 100 nM | {CH2CO}-AV[NMePhe(3-Cl)]VWNY[Phe(4-OMe)(3)]IIRRF[NMeY]C (thioether N-15; not fully specified (C-terminus)) [894_3149]
1 to 100 nM | {CH2CO}-AV[NMePhe(3-Cl)]VWNY[F4aao]II[E(PEG4Me)]KF[NMeY]C-NH2 (thioether N-15; also: linker PEG4c, attachment site not given here) [849_0406]
1 to 100 nM | {CH2CO}-AV[NMePhe(3-Cl)]V[Trp(1-CH2CO)]N[3Pal(6-NH2)][F4aao]II[E(PEG4Me)]R[4Pal][NMeY]C-NH2 (thioether N-15; also: linker PEG4c, place not given here) [849_0402]
1 to 100 nM | {CH2CO}-AV[NMePhe(3-Cl)]VWNY[F4aao]II[E(PEG4Me)]QF[NMeY]C-NH2 (thioether N-15; also: linker PEG4c, attachment site not given here) [849_0408]
1 to 100 nM | {CH2CO}-AV[NMePhe(3-Cl)]VWNY[F4aao]II[E(PEG4Me)]R[E(PEG4Me)][NMeY]C-NH2 (thioether N-15; also: linker PEG4c, attachment site not given here) [849_0409]
1 to 100 nM | {CH2CO}-AV[NMePhe(3-Cl)]VWNY[F4aao]II[E(PEG4Me)][KCOpipzaa]F[NMeY]C-NH2 (thioether N-15; also: linker PEG4c, place not given here) [849_0401]
1 to 100 nM | {CH2CO}-AV[NMePhe(3-Cl)]V[Trp(1-CH2CO)]NY[F4aao]II[E(PEG4Me)][KCOpipzaa]F[NMeY]C-NH2 (thioether N-15; also: linker PEG4c, place not given here) [849_0400]
1 to 100 nM | {CH2CO}-AV[NMePhe(3-Cl)]VWNY[F4aao]II[E(PEG4Me)]RF[NMeY]C-NH2 (thioether N-15; also: linker PEG4c, place not given here) [849_0398]
1 to 100 nM | {CH2CO}-AV[NMePhe(3-Cl)]VWN[3Pal(6-NH2)][F4aao]II[E(PEG4Me)][KCOpipzaa][4Pal][NMeY]C-NH2 (thioether N-15; also: linker PEG4c, attachment site not given here) [849_0403]
1 to 100 nM | {CH2CO}-AV[NMePhe(3-Cl)]VWNY[F4aao]II[E(PEG4Me)]R[F3COO(PEG4Me)″][NMeY]C-NH2 (thioether N-15; also: linker PEG4c, attachment site not given here) [849_0411]
1 to 100 nM | {CH2CO}-AV[NMePhe(3-Cl)]VWNY[F4aao]II[E(PEG4Me)]R[E(PEG4Me)][NMeY]C-NH2 (thioether N-15; also: linker G-ds-ds-ds-ds-ds, attachment site not given here) [849_0410]
1 to 100 nM | {CH2CO}-AV[NMePhe(3-Cl)]VWNY[F4aao]II[E(PEG4Me)][Lys(Me2)]F[NMeY]C-NH2 (thioether N-15; also: linker PEG4c, attachment site not given here) [849_0407]
1 to 100 nM | {CH2CO}-AV[NMePhe(3-Cl)]VWNY[F4aao]II[E(PEG4Me)][Nle(6-morpholino)]F[NMeY]C-NH2 (thioether N-15; also: linker PEG4c, attachment site not given here) [849_0405]
